# Molecular target: Cy5-labeled proliferating cell nuclear antigen (PCNA) (human) (UniProt P12004)
# Sequence (P12004 whole entry): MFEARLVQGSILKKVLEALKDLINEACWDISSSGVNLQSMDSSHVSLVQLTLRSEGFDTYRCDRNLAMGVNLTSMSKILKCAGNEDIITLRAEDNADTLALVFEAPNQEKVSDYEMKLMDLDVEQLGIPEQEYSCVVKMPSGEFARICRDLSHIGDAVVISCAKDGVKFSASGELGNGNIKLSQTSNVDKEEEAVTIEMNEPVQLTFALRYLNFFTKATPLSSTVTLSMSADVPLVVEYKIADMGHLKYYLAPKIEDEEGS
# Chain of PAF15^50–77 peptide (Q15004 50-77): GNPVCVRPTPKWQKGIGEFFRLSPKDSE
# Chain of ΔN-PAF15 (truncated PAF15 variant lacking residues 2-31) (Q15004 32-111, stated change not applied): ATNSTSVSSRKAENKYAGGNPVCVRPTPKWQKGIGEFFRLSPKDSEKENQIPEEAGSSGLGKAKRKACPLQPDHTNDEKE
# Chain of Doubly monoubiquitinated PAF15 (Di-UbPAF15) (Q15004 whole entry, looked up): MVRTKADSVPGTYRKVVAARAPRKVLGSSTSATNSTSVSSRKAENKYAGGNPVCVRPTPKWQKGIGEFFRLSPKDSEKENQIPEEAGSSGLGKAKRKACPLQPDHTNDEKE
substance,measurement,value
Doubly monoubiquitinated PAF15 (Di-UbPAF15) (from UniProt Q15004 2-111) (complex),diffusion constant of Cy5-PCNA on DNA with 1 μM Di-UbPAF15,0.2 μm2/s
PAF15^50–77 peptide,diffusion constant of Cy5-PCNA on DNA with 20 μM PAF15 50-77,0.22 μm2/s
ΔN-PAF15 (truncated PAF15 variant lacking residues 2-31) (from UniProt Q15004 32-111) (domain or fragment),diffusion constant of Cy5-PCNA on DNA with 1 μM ΔN-PAF15,0.15 μm2/s

# — doi:10.1101/2025.11.15.688598
